Measurements: the supplement of paper PMC7125110
± gives the standard error. This sample holds only a part of the variants without activity.

B1: glmS ribozyme (parent)
chain: AUAAAAGCGCCAGAACUACAGAAAUGUAGUUGACGAGGAGGAGGUUUAUCGAAUUUUCGGCGGAUGCCUCCAAA

What was measured:
Conditions in all cases: with glucosamine-6-phosphate
[1] = variants of: B1; assay: self-cleavage kobs at 640 uM GlcN6P; higher = faster cleavage; RNA array
Outline: (§1)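 In situ transcription by E. coli RNA polymerase produced barcoded ribozyme variants on sequenced MiSeq chips, and a hybridised Cy3 probe tracked them at 37 °C. Glucosamine-6-phosphate was flowed in at 40 μM to 10 mM in HEPES/KCl/Mg(OAc)2 buffer. kcat and KM were taken from weighted Michaelis–Menten fits of kobs values from exponential decay fits.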

[2] = variants of: B1; assay: self-cleavage kobs at 2500 uM GlcN6P; higher = faster cleavage; RNA array
Outline: as §1

[3] = variants of: B1; assay: self-cleavage kobs at 10000 uM GlcN6P; higher = faster cleavage; RNA array
Outline: as §1

G29C U30C G66U was tested, and the “self-cleavage kobs at 640 uM GlcN6P” value [1] was < 1e-05 s⁻¹.

With U30C G35A C71A the “self-cleavage kobs at 640 uM GlcN6P” value [1] was < 1e-05 s⁻¹.

In the case of G35A G37A U57A C68A, the “self-cleavage kobs at 640 uM GlcN6P” value [1] is reported as 0.000784 ± 0.00036 s⁻¹.

For U31G G44A U46A G62C, the “self-cleavage kobs at 640 uM GlcN6P” value [1] was < 1e-05 s⁻¹ and the “self-cleavage kobs at 2500 uM GlcN6P” value [2] was < 1e-05 s⁻¹.

In the case of G29U A52U U65G C68G, the “self-cleavage kobs at 640 uM GlcN6P” value [1] is reported as 0.000163 ± 5.2e-05 s⁻¹ and the “self-cleavage kobs at 2500 uM GlcN6P” value [2] is reported as 0.000217 ± 5.1e-05 s⁻¹.

G29U A33C U49G A64U was tested, and the “self-cleavage kobs at 640 uM GlcN6P” value [1] was < 1e-05 s⁻¹.

With A36C G43U U45G U46C U65G the “self-cleavage kobs at 640 uM GlcN6P” value [1] was < 1e-05 s⁻¹ and the “self-cleavage kobs at 2500 uM GlcN6P” value [2] was < 1e-05 s⁻¹.

G29U U30C A52U was tested, and the “self-cleavage kobs at 640 uM GlcN6P” value [1] was < 1e-05 s⁻¹ and the “self-cleavage kobs at 2500 uM GlcN6P” value [2] was < 1e-05 s⁻¹.

In the case of U30A A53U C67G, the “self-cleavage kobs at 640 uM GlcN6P” value [1] is reported as 6.37e-05 ± 2.6e-05 s⁻¹, the “self-cleavage kobs at 2500 uM GlcN6P” value [2] is reported as 4.68e-05 ± 2.2e-05 s⁻¹ and the “self-cleavage kobs at 10000 uM GlcN6P” value [3] is reported as 0.000271 ± 6.3e-05 s⁻¹.

With C34U A36G G62A U69G the “self-cleavage kobs at 640 uM GlcN6P” value [1] was 0.00111 ± 0.00031 s⁻¹ and the “self-cleavage kobs at 2500 uM GlcN6P” value [2] was 0.000939 ± 0.00035 s⁻¹.

For G35C G37C A39C G63C, the “self-cleavage kobs at 640 uM GlcN6P” value [1] was < 1e-05 s⁻¹ and the “self-cleavage kobs at 2500 uM GlcN6P” value [2] was < 1e-05 s⁻¹.

With G29U U55A A64G the “self-cleavage kobs at 640 uM GlcN6P” value [1] was 0.000889 ± 0.00022 s⁻¹ and the “self-cleavage kobs at 2500 uM GlcN6P” value [2] was 0.00375 ± 0.00061 s⁻¹.

U30G U47C was tested, and the “self-cleavage kobs at 640 uM GlcN6P” value [1] was 0.000187 ± 6.5e-05 s⁻¹ and the “self-cleavage kobs at 2500 uM GlcN6P” value [2] was 0.00013 ± 6.3e-05 s⁻¹.

For G35C C58A C67U, the “self-cleavage kobs at 640 uM GlcN6P” value [1] was < 1e-05 s⁻¹.

A36G U49A G63U was tested, and the “self-cleavage kobs at 640 uM GlcN6P” value [1] was < 1e-05 s⁻¹.

In the case of G32U A33U C34A A36C, the “self-cleavage kobs at 640 uM GlcN6P” value [1] is reported as < 1e-05 s⁻¹ and the “self-cleavage kobs at 2500 uM GlcN6P” value [2] is reported as < 1e-05 s⁻¹.

For G29A G32A G66A, the “self-cleavage kobs at 640 uM GlcN6P” value [1] was 0.000119 ± 2.8e-05 s⁻¹ and the “self-cleavage kobs at 2500 uM GlcN6P” value [2] was 0.000338 ± 8.3e-05 s⁻¹.

G32A G37C C61U C67U was tested, and the “self-cleavage kobs at 640 uM GlcN6P” value [1] was < 1e-05 s⁻¹.

With G35C G43U C61U the “self-cleavage kobs at 640 uM GlcN6P” value [1] was < 1e-05 s⁻¹ and the “self-cleavage kobs at 2500 uM GlcN6P” value [2] was < 1e-05 s⁻¹.

G35A G41U U54C was tested, and the “self-cleavage kobs at 640 uM GlcN6P” value [1] was < 1e-05 s⁻¹ and the “self-cleavage kobs at 2500 uM GlcN6P” value [2] was < 1e-05 s⁻¹.

With A33U G41C G51U U55A the “self-cleavage kobs at 640 uM GlcN6P” value [1] was < 1e-05 s⁻¹ and the “self-cleavage kobs at 10000 uM GlcN6P” value [3] was < 1e-05 s⁻¹.

For U31C A36C U45G U65G C71U, the “self-cleavage kobs at 640 uM GlcN6P” value [1] was < 1e-05 s⁻¹ and the “self-cleavage kobs at 2500 uM GlcN6P” value [2] was < 1e-05 s⁻¹.

With U30C G43A C71U the “self-cleavage kobs at 640 uM GlcN6P” value [1] was < 1e-05 s⁻¹.

With U30A G43A the “self-cleavage kobs at 640 uM GlcN6P” value [1] was < 1e-05 s⁻¹.

For C34U G38U U46C U56G G60U, the “self-cleavage kobs at 640 uM GlcN6P” value [1] was < 1e-05 s⁻¹.

U30G G40C A53G G62C was tested, and the “self-cleavage kobs at 640 uM GlcN6P” value [1] was < 1e-05 s⁻¹.

For G29A G35C A48G, the “self-cleavage kobs at 640 uM GlcN6P” value [1] was < 1e-05 s⁻¹.

In the case of U30G U31C A39U, the “self-cleavage kobs at 640 uM GlcN6P” value [1] is reported as 0.000202 ± 6.1e-05 s⁻¹ and the “self-cleavage kobs at 10000 uM GlcN6P” value [3] is reported as 0.00122 ± 0.00026 s⁻¹.

In the case of G35A G40U G43U G59A C67G, the “self-cleavage kobs at 640 uM GlcN6P” value [1] is reported as < 1e-05 s⁻¹ and the “self-cleavage kobs at 2500 uM GlcN6P” value [2] is reported as < 1e-05 s⁻¹.

For U30C G35U C68U, the “self-cleavage kobs at 640 uM GlcN6P” value [1] was < 1e-05 s⁻¹ and the “self-cleavage kobs at 2500 uM GlcN6P” value [2] was < 1e-05 s⁻¹.

For U30C G41C C71U, the “self-cleavage kobs at 640 uM GlcN6P” value [1] was < 1e-05 s⁻¹.

With G32C A53C G62C the “self-cleavage kobs at 640 uM GlcN6P” value [1] was < 1e-05 s⁻¹ and the “self-cleavage kobs at 2500 uM GlcN6P” value [2] was < 1e-05 s⁻¹.

With U30C G59C G63U the “self-cleavage kobs at 640 uM GlcN6P” value [1] was < 1e-05 s⁻¹.

U30A A64U was tested, and the “self-cleavage kobs at 640 uM GlcN6P” value [1] was < 1e-05 s⁻¹.

With A33G A36G U47G C71G the “self-cleavage kobs at 640 uM GlcN6P” value [1] was 0.000121 ± 4.4e-05 s⁻¹.

In the case of C34U G41C A52U G60C U69G, the “self-cleavage kobs at 640 uM GlcN6P” value [1] is reported as < 1e-05 s⁻¹ and the “self-cleavage kobs at 10000 uM GlcN6P” value [3] is reported as < 1e-05 s⁻¹.

With G32A A36U G62U C70G the “self-cleavage kobs at 640 uM GlcN6P” value [1] was 0.000218 ± 8.5e-05 s⁻¹.

A33C U45G U55C was tested, and the “self-cleavage kobs at 640 uM GlcN6P” value [1] was < 1e-05 s⁻¹.

For U30G G32A G38C U57C U65C, the “self-cleavage kobs at 640 uM GlcN6P” value [1] was < 1e-05 s⁻¹ and the “self-cleavage kobs at 2500 uM GlcN6P” value [2] was < 1e-05 s⁻¹.

A33C C50U G60U was tested, and the “self-cleavage kobs at 640 uM GlcN6P” value [1] was < 1e-05 s⁻¹.

In the case of G35U G44C G66U, the “self-cleavage kobs at 640 uM GlcN6P” value [1] is reported as < 1e-05 s⁻¹.

For A33G A53C A64U, the “self-cleavage kobs at 640 uM GlcN6P” value [1] was < 1e-05 s⁻¹.

In the case of G32C G35C U47C C58U, the “self-cleavage kobs at 640 uM GlcN6P” value [1] is reported as < 1e-05 s⁻¹.

A33G C34U A42G G51U C58U G59C was tested, and the “self-cleavage kobs at 640 uM GlcN6P” value [1] was < 1e-05 s⁻¹ and the “self-cleavage kobs at 2500 uM GlcN6P” value [2] was < 1e-05 s⁻¹.

For G32U C34A, the “self-cleavage kobs at 640 uM GlcN6P” value [1] was < 1e-05 s⁻¹, the “self-cleavage kobs at 2500 uM GlcN6P” value [2] was < 1e-05 s⁻¹ and the “self-cleavage kobs at 10000 uM GlcN6P” value [3] was < 1e-05 s⁻¹.

With U31G G51A the “self-cleavage kobs at 640 uM GlcN6P” value [1] was < 1e-05 s⁻¹.

In the case of U30G G37U G40U, the “self-cleavage kobs at 640 uM GlcN6P” value [1] is reported as < 1e-05 s⁻¹ and the “self-cleavage kobs at 2500 uM GlcN6P” value [2] is reported as < 1e-05 s⁻¹.

For G32A A39G U46C, the “self-cleavage kobs at 640 uM GlcN6P” value [1] was 0.000174 ± 4.5e-05 s⁻¹ and the “self-cleavage kobs at 2500 uM GlcN6P” value [2] was 0.000355 ± 0.00011 s⁻¹.

U31G G32A U54C was tested, and the “self-cleavage kobs at 640 uM GlcN6P” value [1] was 0.000129 ± 3.8e-05 s⁻¹ and the “self-cleavage kobs at 2500 uM GlcN6P” value [2] was 0.000702 ± 0.00023 s⁻¹.

For G32U A52C C61U, the “self-cleavage kobs at 640 uM GlcN6P” value [1] was < 1e-05 s⁻¹.

For U30A G44C U45G A48C U57A, the “self-cleavage kobs at 640 uM GlcN6P” value [1] was < 1e-05 s⁻¹.

With G32C G35A A36G the “self-cleavage kobs at 640 uM GlcN6P” value [1] was < 1e-05 s⁻¹.

For G29U A53G U57C C67G U69A, the “self-cleavage kobs at 640 uM GlcN6P” value [1] was 0.000459 ± 0.00022 s⁻¹.

With G35A G43C A53U U54A the “self-cleavage kobs at 640 uM GlcN6P” value [1] was < 1e-05 s⁻¹ and the “self-cleavage kobs at 2500 uM GlcN6P” value [2] was < 1e-05 s⁻¹.

With A33U C34U C71G the “self-cleavage kobs at 640 uM GlcN6P” value [1] was < 1e-05 s⁻¹.

For A33U C34G G44A G51A, the “self-cleavage kobs at 640 uM GlcN6P” value [1] was < 1e-05 s⁻¹ and the “self-cleavage kobs at 2500 uM GlcN6P” value [2] was < 1e-05 s⁻¹.

With G32U A39G the “self-cleavage kobs at 640 uM GlcN6P” value [1] was 0.0002 ± 3.6e-05 s⁻¹ and the “self-cleavage kobs at 2500 uM GlcN6P” value [2] was 0.000485 ± 0.00015 s⁻¹.

In the case of U30A G60U C71A, the “self-cleavage kobs at 640 uM GlcN6P” value [1] is reported as < 1e-05 s⁻¹ and the “self-cleavage kobs at 2500 uM GlcN6P” value [2] is reported as < 1e-05 s⁻¹.

With G32C G51C the “self-cleavage kobs at 640 uM GlcN6P” value [1] was < 1e-05 s⁻¹ and the “self-cleavage kobs at 2500 uM GlcN6P” value [2] was < 1e-05 s⁻¹.

A36G A42G U56G was tested, and the “self-cleavage kobs at 640 uM GlcN6P” value [1] was < 1e-05 s⁻¹.

C34G G37U A39G C58U C61G was tested, and the “self-cleavage kobs at 640 uM GlcN6P” value [1] was 0.00305 ± 0.001 s⁻¹.

U31A G32C G60A G66A was tested, and the “self-cleavage kobs at 640 uM GlcN6P” value [1] was < 1e-05 s⁻¹.

With C34U A36U G41C A53G the “self-cleavage kobs at 640 uM GlcN6P” value [1] was < 1e-05 s⁻¹.

U30G U49A G66C was tested, and the “self-cleavage kobs at 640 uM GlcN6P” value [1] was < 1e-05 s⁻¹.

With G29U G38U U57A G59C the “self-cleavage kobs at 640 uM GlcN6P” value [1] was < 1e-05 s⁻¹.

For G32U U56A C67A, the “self-cleavage kobs at 640 uM GlcN6P” value [1] was 0.000114 ± 2.4e-05 s⁻¹ and the “self-cleavage kobs at 2500 uM GlcN6P” value [2] was 0.000294 ± 8.2e-05 s⁻¹.

In the case of G35A G51A U54A G63U, the “self-cleavage kobs at 640 uM GlcN6P” value [1] is reported as < 1e-05 s⁻¹.

U30G U49C was tested, and the “self-cleavage kobs at 640 uM GlcN6P” value [1] was < 1e-05 s⁻¹ and the “self-cleavage kobs at 2500 uM GlcN6P” value [2] was < 1e-05 s⁻¹.

In the case of G35A A39C U47C U56G, the “self-cleavage kobs at 640 uM GlcN6P” value [1] is reported as < 1e-05 s⁻¹.

G29U G40C A52G C58A C68A was tested, and the “self-cleavage kobs at 640 uM GlcN6P” value [1] was < 1e-05 s⁻¹ and the “self-cleavage kobs at 2500 uM GlcN6P” value [2] was < 1e-05 s⁻¹.
